The record followed here is US20240317847A1 (Bayer, published 2024).

Substitutions are numbered along the chain they refer to.

The Kd is a measure of binding affinity in units of concentration.

The chains are these.
B1: TPP-26326 (antibody, V domains shown)
VH: EVQLLESGGGLVQPGGSLRLSCAASGFTFSYYGMHWVRQAPGKGLEWVSVISYDGSYKYYADSVKGRFTISRDNSKNTLYLQMNSLRAEDTAVYYCAAGVPDYWGQGTLVTVSS
VL: QSVLTQPPSASGTPGQRVTISCTGSSSNIGAGYDVHWYQQLPGTAPKLLIYSNNERPSGVPDRFSGSKSGTSASLAISGLRSEDEADYYCAAWDDSLNGPVFGGGTKLTVL
B2: TPP-26317 (antibody, V domains shown)
VH: B1 VH with Y31S
VL: B1 VL with G32E
B3: TPP-26330 (antibody, V domains shown)
VH: B1 VH with Y31F
VL: B1 VL
B4: TPP-26331 (antibody, V domains shown)
VH: B1 VH with Y31S, M34G
VL: B1 VL
B5: TPP-26332 (antibody, V domains shown)
VH: B1 VH with Y31S, G33K
VL: B1 VL
B6: TPP-26323 (antibody, V domains shown)
VH: B1 VH with Y31S
VL: B1 VL with D95G
B7: TPP-26325 (antibody, V domains shown)
VH: B1 VH with Y31W
VL: B1 VL
B8: TPP-26329 (antibody, V domains shown)
VH: B1 VH with Y31S, Y32W
VL: B1 VL
B9: TPP-26320 (antibody, V domains shown)
VH: B1 VH with Y31S
VL: B1 VL with N54E
B10: TPP-26318 (antibody, V domains shown)
VH: B1 VH with Y31S
VL: B1 VL with D34F
B11: TPP-26333 (antibody, V domains shown)
VH: B1 VH with Y31S, M34F
VL: B1 VL
B12: TPP-26328 (antibody, V domains shown)
VH: B1 VH with Y31S, G99T
VL: B1 VL
B13: TPP-26327 (antibody, V domains shown)
VH: B1 VH with Y31S, S52R
VL: B1 VL
B14: TPP-26321 (antibody, V domains shown)
VH: B1 VH with Y31S
VL: B1 VL with D95L
B15: TPP-26319 (antibody, V domains shown)
VH: B1 VH with Y31S
VL: B1 VL with R56K
B16: TPP-26324 (antibody, V domains shown)
VH: B1 VH with Y31S, A61R
VL: B1 VL
B17: TPP-26290 (antibody, V domains shown)
VH: B1 VH with Y31S
VL: B1 VL with Y33M
notes: constant regions not restated
B18: TPP-26333 (antibody, V domains shown)
VH: B1 VH with Y31S, M34F
VL: B1 VL
notes: constant regions not restated

For the first assay, the target named is T1, human IL2Ra (human, UniProt P01589 22-240, limits assumed).
T1 construct: bought protein, coated on the plate; also called hIL2RA; IL-2 receptor alpha
T1 sequence (looked up): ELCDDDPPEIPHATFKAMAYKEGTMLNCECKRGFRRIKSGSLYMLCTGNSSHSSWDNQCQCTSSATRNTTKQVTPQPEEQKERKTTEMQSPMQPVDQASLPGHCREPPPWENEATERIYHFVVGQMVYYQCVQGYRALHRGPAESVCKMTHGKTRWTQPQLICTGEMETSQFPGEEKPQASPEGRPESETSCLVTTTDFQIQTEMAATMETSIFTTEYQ
Description: IL2Ra direct binding ELISA, signal ratio to isotype control. The procedure:
IL2RA (Peprotech, Germany, #200-02RC) was coated at 1 or 0 μg/ml (buffer only control) in 30 μl coating buffer (Candor, #113500) per well on a 384 well microtiter plate (Maxisorb, Nunc, #460518) over night at 4-8° C. After two washes with 50 μl/well washing buffer (PBS+0.05% Tween, pH 7.4), the plates were incubated for two hours at room temperature with 50 μl/well SmartBlock (Candor, #113500). After blocking, the plates were washed three times with washing buffer. Then, a dilution series of the respective antibody (1E-7 [M] down to 2E-13 [M]) in PBS+0.05% Tween, 10% SmartBlock were added in 30 μl to the microtiter plate and incubated for 90 min at room temperature. After three additional washes, 30 μl anti mouse IgG HRP-conjugated antibody (Biotechne, HAF007), diluted 1:1000 in PBS+0.05% Tween (pH 7.4), were added per well and incubated for one hour. After three additional washes, a mixture of Amplex red (Invitrogen, #12222, 10 mM stock solution in DMSO) 1:1000 diluted in PBS and H2O2 (30%, Merck, #107209)) diluted 1:10000 in PBS were added as substrate with 30 μl per well and incubated for 20 min in the dark. Relative fluorescence was measured with a microtiter plate reader at 535/590 nm.
Next, the 42 antibodies were subjected to an IL2Ra binding ELISA as described in Example 20.
For the molecule B1, the “hIL2RA ELISA Binding: Ratio to Isotpye” value is 516 ratio.

For the molecule B2, the “hIL2RA ELISA Binding: Ratio to Isotpye” value is 31 ratio.

As for B3, the “hIL2RA ELISA Binding: Ratio to Isotpye” value was found to be 264 ratio.

With B4, the “hIL2RA ELISA Binding: Ratio to Isotpye” value was 107 ratio.

For B5, the “hIL2RA ELISA Binding: Ratio to Isotpye” value stood at 19 ratio.

For the molecule B6, the “hIL2RA ELISA Binding: Ratio to Isotpye” value worked out at 256 ratio.

For B7, the “hIL2RA ELISA Binding: Ratio to Isotpye” value worked out at 542 ratio.

With B8, the “hIL2RA ELISA Binding: Ratio to Isotpye” value came to 247 ratio.

Consider B9, for which the “hIL2RA ELISA Binding: Ratio to Isotpye” value is 260 ratio.

Take B10: the “hIL2RA ELISA Binding: Ratio to Isotpye” value amounted to 267 ratio.

Consider B11, for which the “hIL2RA ELISA Binding: Ratio to Isotpye” value worked out at 436 ratio.

Turning to B12, the “hIL2RA ELISA Binding: Ratio to Isotpye” value stood at 27 ratio.

Consider B13, for which the “hIL2RA ELISA Binding: Ratio to Isotpye” value was found to be 11 ratio.

In the case of B14, the “hIL2RA ELISA Binding: Ratio to Isotpye” value was 182 ratio.

As for B15, the “hIL2RA ELISA Binding: Ratio to Isotpye” value came out at 235 ratio.

Take B16: the “hIL2RA ELISA Binding: Ratio to Isotpye” value turned out to be 247 ratio.

The target of a further assay is T2, murine IL-11 (mouse, UniProt P47873 22-199).
T2 construct: bought from Invigate; also called mIL-11; mIL11
T2 sequence: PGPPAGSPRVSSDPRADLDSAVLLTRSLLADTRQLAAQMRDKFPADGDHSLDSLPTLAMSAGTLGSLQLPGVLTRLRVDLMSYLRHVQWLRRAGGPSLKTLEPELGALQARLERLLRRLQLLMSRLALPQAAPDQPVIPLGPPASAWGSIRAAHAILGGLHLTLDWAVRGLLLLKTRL
The experiment in a line: SPR, antibody captured, IL-11 as analyte. The procedure: (§1) Antibodies were captured via anti-mouse Fc IgGs (“Mouse antibody capture kit, Order No. BR100383, Cytiva) covalently amine coupled to a Series S CM5 sensor chip (Cytiva). The amine coupling was carried out according to the manufacturer's instructions using 1-ethyl-3-(3-dimethylaminopropyl) carbodiimide hydrochloride (EDC), N-hydroxysuccinimide (NHS) and ethanolamine HCl, pH 8.5 (“Amine Coupling Kit” BR-1000-50, Cytiva.). Human IL-11 (Invigate, e.g., lot #C121021-19), and murine IL-11 (Invigate, e.g., lot #C210819-09) were used as analytes. […] Based on that experiment an IL-11 concentration range was chosen to optimally determine kinetics and affinity of anti-IL-11 antibodies in multicycle kinetics mode. The sensor surface was regenerated with glycine pH 1.7 after each antigen injection. Obtained sensorgrams were double referenced (subtraction of reference flow cell signal and buffer injection) and were fitted to a 1:1 Langmuir binding model to derive kinetic data using the Biacore T200 Evaluation software or the Biacore Insight software.
(§2) 42 hits from the IL-11 and […] screening analysis were selected, expressed by transient transfection of mammalian cells and purified as described in Example 15. Antibodies were then tested for human IL-11 and murine IL-11 binding by SPR as described in Example 16.
Background: SPR reads the build-up and loss of mass on a sensor chip optically.
B17: the affinity, expressed as Kd, was 0.54 nM.

Another assay addresses T3, human IL-11 (human, UniProt P20809 22-199).
T3 construct: bought from Invigate; also called hIL-11; hIL11
T3 sequence: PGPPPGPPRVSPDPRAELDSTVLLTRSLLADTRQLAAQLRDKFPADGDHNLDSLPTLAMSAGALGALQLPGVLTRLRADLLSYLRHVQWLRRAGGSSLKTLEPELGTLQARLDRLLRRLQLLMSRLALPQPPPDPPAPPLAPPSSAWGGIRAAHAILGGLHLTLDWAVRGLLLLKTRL
Description: SPR, antibody captured, IL-11 as analyte. The procedure: as §1, §2
The molecule B17 showed a Kd of 8.6 nM.

The molecule B18 displayed a Kd of 11 nM.

The next assay concerns the target T4, murine IL-11 (mouse, UniProt P47873 22-199).
T4 sequence: T2 sequence
The experiment in a line: cell-based or functional assay.
Turning to B1, the “RGA Efficacy (%)” value stood at 83% and the “RGA IC50” value is 2 nM.

On to B2, for which the “RGA Efficacy (%)” value amounted to 93.2% and the “RGA IC50” value amounted to 1.2 nM.

With B3, the “RGA Efficacy (%)” value was found to be 88.2% and the “RGA IC50” value was found to be 1.3 nM.

On to B4, for which the “RGA Efficacy (%)” value came out at 90.9% and the “RGA IC50” value was determined as 1.5 nM.

As for B5, the “RGA Efficacy (%)” value was 0.9%.

B6: the “RGA Efficacy (%)” value amounted to 95.9% and the “RGA IC50” value was determined as 0.92 nM.

With B7, the “RGA Efficacy (%)” value was determined as 93% and the “RGA IC50” value amounted to 1.3 nM.

With B8, the “RGA Efficacy (%)” value came out at 95.5% and the “RGA IC50” value is 1 nM.

Turning to B9, the “RGA Efficacy (%)” value amounted to 100% and the “RGA IC50” value is 1.5 nM.

For B10, the “RGA Efficacy (%)” value was found to be 82.3% and the “RGA IC50” value was found to be 4.7 nM.

For the molecule B11, the “RGA Efficacy (%)” value was determined as 94.1% and the “RGA IC50” value was found to be 1.2 nM.

Consider B12, for which the “RGA Efficacy (%)” value came out at 70.8% and the “RGA IC50” value came to 64 nM.

Regarding B13, the “RGA Efficacy (%)” value was found to be 38% and the “RGA IC50” value came to 470 nM.

Consider B14, for which the “RGA Efficacy (%)” value was determined as 93.5% and the “RGA IC50” value was found to be 1.1 nM.

In the case of B15, the “RGA Efficacy (%)” value was 91.1% and the “RGA IC50” value amounted to 1.5 nM.

Consider B16, for which the “RGA Efficacy (%)” value came out at 92.4% and the “RGA IC50” value was determined as 1.3 nM.

In the next assay the target is T5, human IL-11 (human, UniProt P20809 22-199).
T5 sequence: T3 sequence
The experiment in a line: cell-based or functional assay.
Consider B1, for which the “RGA Efficacy (%)” value is 72% and the “RGA IC50” value came out at 5.4 nM.

For B2, the “RGA Efficacy (%)” value amounted to 69.9% and the “RGA IC50” value is 0.99 nM.

On to B3, for which the “RGA Efficacy (%)” value came out at 64.8% and the “RGA IC50” value came out at 3.4 nM.

For the molecule B4, the “RGA Efficacy (%)” value was found to be 54.9% and the “RGA IC50” value was found to be 5.4 nM.

Regarding B5, the “RGA Efficacy (%)” value was determined as 0.8%.

On to B6, for which the “RGA Efficacy (%)” value turned out to be 57.6% and the “RGA IC50” value stood at 2 nM.

In the case of B7, the “RGA Efficacy (%)” value was 81.4% and the “RGA IC50” value amounted to 1.7 nM.

For the molecule B8, the “RGA Efficacy (%)” value turned out to be 67.1% and the “RGA IC50” value stood at 2.6 nM.

With B9, the “RGA Efficacy (%)” value was 70.3% and the “RGA IC50” value is 7.4 nM.

For B10, the “RGA Efficacy (%)” value was 45.9% and the “RGA IC50” value is 2.4 nM.

As for B11, the “RGA Efficacy (%)” value amounted to 64.7% and the “RGA IC50” value amounted to 13 nM.

In the case of B12, the “RGA Efficacy (%)” value was found to be 18.6%.

Consider B13, for which the “RGA Efficacy (%)” value amounted to 15%.

As for B14, the “RGA Efficacy (%)” value worked out at 71.3% and the “RGA IC50” value stood at 2.1 nM.

Turning to B15, the “RGA Efficacy (%)” value was found to be 48.6% and the “RGA IC50” value amounted to 7.4 nM.

For B16, the “RGA Efficacy (%)” value was determined as 59% and the “RGA IC50” value is 1.5 nM.
